From article PMC3514216, “SRC Homology 2 Domain Binding Sites in Insulin, IGF-1 and FGF receptor mediated signaling networks reveal an extensive potential interactome” (Cell Communication and Signaling : CCS, 2012)
“And” between values parts separate entries of the source, which are not always exact repeats. Equal entries are not always repeated. Values belong to the substance of their own block, whether it stands above or below them.

What was measured:
[1] = target: p130Cas (Y362) (Homo sapiens) (UniProt P56945); settings: cited from earlier work
Chain of p130Cas (Y362) (Homo sapiens) (P56945 whole entry, looked up, the tested form may be a part): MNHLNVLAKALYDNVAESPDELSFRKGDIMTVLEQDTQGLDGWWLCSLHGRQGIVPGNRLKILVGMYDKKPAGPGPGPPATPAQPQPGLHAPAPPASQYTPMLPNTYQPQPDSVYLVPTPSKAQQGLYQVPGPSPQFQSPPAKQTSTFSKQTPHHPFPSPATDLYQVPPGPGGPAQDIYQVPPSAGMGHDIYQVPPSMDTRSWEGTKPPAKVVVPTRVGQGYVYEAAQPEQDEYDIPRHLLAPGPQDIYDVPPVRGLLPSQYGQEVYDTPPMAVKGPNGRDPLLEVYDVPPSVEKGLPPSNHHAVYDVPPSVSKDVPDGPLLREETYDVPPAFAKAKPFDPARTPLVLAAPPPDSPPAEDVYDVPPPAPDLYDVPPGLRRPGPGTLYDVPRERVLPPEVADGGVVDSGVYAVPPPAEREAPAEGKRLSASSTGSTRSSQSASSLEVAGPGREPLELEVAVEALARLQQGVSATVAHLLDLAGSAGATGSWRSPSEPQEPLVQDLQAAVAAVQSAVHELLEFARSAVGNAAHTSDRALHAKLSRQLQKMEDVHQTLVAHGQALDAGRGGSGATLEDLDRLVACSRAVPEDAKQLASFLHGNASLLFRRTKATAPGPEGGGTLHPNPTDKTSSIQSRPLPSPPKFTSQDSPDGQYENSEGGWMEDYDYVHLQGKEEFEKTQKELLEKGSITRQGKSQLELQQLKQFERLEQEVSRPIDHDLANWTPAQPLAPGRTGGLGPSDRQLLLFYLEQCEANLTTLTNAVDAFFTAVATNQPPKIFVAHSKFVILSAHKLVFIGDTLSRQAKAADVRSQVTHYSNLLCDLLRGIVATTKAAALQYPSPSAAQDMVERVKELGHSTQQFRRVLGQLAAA

[2] = target: p62DOK1 (Y398) phosphopeptide KEEGpYELPYNP, Rhodamine B-labelled; experiment: fluorescence polarisation; Rhodamine B-labelled peptide in solution with SH2 domain; Beacon 2000; as previously described [40]
[3] = target: FGFR3 (Y760) phosphopeptide STDEpYLDLSAP, Rhodamine B-labelled; experiment: as above
[4] = target: IRS-1 (Y896) phosphopeptide SPGEpYVNIEFG, Rhodamine B-labelled; experiment: as above
[5] = target: IRS-1 (Y1179) phosphopeptide NGLNpYIDLDLV, Rhodamine B-labelled; experiment: as above
[6] = target: p130Cas (Y362) phosphopeptide AEDVpYDVPPPA, Rhodamine B-labelled; experiment: as above
[7] = target: FGFR1 (Y463) phosphopeptide GVSEpYELPEDP, Rhodamine B-labelled; experiment: as above
IRS-1 (Homo sapiens) = IRS-1 (Homo sapiens) (UniProt P35568); settings: cited from earlier work
Chain of IRS-1 (Homo sapiens) (P35568 whole entry): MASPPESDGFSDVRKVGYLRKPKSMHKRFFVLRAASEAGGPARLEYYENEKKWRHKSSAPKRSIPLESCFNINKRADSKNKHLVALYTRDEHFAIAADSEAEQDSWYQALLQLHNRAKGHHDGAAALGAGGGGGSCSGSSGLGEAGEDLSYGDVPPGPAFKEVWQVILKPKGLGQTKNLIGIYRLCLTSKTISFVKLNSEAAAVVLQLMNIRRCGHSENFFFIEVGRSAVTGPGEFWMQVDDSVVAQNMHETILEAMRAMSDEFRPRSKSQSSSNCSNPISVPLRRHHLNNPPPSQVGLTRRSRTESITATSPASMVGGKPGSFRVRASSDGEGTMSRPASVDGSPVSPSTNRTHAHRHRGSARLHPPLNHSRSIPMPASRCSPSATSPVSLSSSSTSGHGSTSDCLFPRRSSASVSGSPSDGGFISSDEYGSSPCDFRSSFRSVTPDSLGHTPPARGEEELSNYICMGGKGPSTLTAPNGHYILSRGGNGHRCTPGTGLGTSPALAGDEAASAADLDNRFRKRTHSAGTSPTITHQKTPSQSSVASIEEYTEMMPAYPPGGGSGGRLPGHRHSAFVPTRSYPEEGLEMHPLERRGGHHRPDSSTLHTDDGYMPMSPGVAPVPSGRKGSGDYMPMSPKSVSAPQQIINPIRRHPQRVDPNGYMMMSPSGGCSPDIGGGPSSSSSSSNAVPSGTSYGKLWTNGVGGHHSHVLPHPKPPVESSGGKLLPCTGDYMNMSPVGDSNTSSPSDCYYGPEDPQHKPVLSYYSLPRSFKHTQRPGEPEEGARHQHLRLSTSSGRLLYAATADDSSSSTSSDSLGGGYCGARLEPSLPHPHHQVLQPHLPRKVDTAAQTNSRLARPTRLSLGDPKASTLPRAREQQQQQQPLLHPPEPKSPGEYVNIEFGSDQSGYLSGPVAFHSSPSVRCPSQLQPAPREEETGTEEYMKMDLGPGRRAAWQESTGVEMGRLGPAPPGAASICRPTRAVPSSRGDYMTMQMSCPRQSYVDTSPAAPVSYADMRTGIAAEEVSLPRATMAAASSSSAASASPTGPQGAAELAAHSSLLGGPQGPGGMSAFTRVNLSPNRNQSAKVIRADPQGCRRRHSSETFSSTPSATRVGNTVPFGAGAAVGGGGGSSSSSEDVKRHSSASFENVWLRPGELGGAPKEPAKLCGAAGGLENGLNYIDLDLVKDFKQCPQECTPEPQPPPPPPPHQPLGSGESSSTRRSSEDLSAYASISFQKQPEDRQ

[8] = target: IRS-1 (Y896) (Homo sapiens) (UniProt P35568); settings: cited from earlier work
Chain of IRS-1 (Y896) (Homo sapiens) (P35568 whole entry, looked up): as the sequence (P35568 whole entry) above

[9] = target: ShcA (Y426) (Homo sapiens) (UniProt P29353); settings: cited from earlier work
Chain of ShcA (Y426) (Homo sapiens) (P29353 whole entry, looked up): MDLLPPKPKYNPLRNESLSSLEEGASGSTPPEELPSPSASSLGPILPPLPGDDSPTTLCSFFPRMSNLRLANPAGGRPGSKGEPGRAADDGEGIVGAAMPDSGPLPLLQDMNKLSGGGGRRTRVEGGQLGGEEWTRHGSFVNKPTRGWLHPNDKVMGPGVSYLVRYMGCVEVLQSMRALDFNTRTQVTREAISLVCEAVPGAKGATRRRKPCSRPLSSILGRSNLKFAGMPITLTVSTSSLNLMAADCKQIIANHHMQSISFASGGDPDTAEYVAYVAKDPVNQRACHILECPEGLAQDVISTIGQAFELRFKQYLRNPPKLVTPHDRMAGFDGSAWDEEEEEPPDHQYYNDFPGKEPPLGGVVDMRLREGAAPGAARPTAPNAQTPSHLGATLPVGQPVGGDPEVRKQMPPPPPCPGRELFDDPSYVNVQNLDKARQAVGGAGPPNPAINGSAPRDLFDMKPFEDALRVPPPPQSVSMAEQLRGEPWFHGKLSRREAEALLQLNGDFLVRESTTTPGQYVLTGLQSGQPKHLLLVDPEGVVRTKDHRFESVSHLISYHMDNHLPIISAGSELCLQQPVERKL

[10] = target: B3AT (Y921) (Homo sapiens) (UniProt P02730); settings: cited from earlier work
Chain of B3AT (Y921) (Homo sapiens) (P02730 whole entry, looked up): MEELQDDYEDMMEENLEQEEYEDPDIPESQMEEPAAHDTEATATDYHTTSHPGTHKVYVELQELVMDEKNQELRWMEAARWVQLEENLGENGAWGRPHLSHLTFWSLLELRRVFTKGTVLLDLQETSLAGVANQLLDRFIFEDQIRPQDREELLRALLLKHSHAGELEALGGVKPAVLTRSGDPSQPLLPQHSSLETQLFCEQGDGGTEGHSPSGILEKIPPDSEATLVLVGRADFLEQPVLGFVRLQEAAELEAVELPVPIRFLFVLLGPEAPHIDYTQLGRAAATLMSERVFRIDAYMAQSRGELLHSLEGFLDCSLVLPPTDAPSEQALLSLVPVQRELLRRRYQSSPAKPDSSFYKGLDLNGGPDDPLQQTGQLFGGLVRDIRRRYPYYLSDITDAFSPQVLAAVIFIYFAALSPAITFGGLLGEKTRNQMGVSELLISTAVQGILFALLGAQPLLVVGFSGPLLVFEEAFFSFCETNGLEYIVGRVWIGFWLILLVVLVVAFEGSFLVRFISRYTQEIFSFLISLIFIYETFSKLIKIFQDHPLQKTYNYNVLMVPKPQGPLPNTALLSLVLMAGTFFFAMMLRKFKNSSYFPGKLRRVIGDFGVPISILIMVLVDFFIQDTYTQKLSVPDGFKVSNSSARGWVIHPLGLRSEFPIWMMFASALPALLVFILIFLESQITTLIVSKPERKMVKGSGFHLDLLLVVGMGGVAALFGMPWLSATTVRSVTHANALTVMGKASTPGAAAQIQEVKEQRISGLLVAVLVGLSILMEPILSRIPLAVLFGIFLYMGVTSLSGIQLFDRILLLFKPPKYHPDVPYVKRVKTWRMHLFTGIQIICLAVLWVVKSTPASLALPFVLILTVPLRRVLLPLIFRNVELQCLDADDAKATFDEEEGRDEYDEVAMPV

[11] = target: PDGFRb (Y1021) (Homo sapiens) (UniProt P09619); settings: cited from earlier work
[12] = target: IRS-1 (Y1179) (Homo sapiens) (UniProt P35568); settings: cited from earlier work
Chain of IRS-1 (Y1179) (Homo sapiens) (P35568 whole entry, looked up): as the sequence (P35568 whole entry) above

[13] = target: IRS-1 (Y1012) (Homo sapiens) (UniProt P35568); settings: cited from earlier work
Chain of IRS-1 (Y1012) (Homo sapiens) (P35568 whole entry, looked up): as the sequence (P35568 whole entry) above

[14] = target: CD150 (Y142) (Homo sapiens) (UniProt P20963); settings: cited from earlier work
Chain of CD150 (Y142) (Homo sapiens) (P20963 whole entry, looked up): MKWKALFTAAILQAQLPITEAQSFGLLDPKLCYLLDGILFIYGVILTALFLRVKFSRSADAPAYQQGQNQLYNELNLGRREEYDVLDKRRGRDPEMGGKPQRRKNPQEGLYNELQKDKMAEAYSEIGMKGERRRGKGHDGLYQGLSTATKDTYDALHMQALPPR

[15] = target: p130Cas (Y664) (Homo sapiens) (UniProt P56945); settings: cited from earlier work
Chain of p130Cas (Y664) (Homo sapiens) (P56945 whole entry, looked up): as the sequence (P56945 whole entry, looked up, the tested form may be a part) above

Chain of Grb2 SH2 (P62993 57-155): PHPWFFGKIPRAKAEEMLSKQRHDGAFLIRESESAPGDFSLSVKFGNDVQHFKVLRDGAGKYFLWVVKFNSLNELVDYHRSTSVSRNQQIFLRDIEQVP
Chain of Crk SH2 (P46108 10-121): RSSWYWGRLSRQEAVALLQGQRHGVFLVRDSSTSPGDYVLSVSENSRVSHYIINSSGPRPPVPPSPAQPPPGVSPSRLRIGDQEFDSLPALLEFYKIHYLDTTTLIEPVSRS
Chain of Plcγ-C SH2 (C-terminal) (P19174 668-756): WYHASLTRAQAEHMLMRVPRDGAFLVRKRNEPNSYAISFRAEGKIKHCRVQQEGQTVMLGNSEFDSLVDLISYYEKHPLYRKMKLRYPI
Chain of Shc1 SH2 (P29353 485-582): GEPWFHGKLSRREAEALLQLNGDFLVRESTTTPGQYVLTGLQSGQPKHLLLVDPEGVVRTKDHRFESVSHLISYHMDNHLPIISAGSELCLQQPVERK

Substance: Crk SH2 (from UniProt P46108)
Kd [1]: 545 nM

Kd [2]: 13000 nM
Kd [3]: 2140 nM
Substance: GST-PI3K1_C SH2 domain (domain or fragment)

Kd [4]: 2680 nM
Kd [5]: 15000 nM
Kd [2]: 1850 nM
Substance: GST-PI3K1_N SH2 domain (domain or fragment)

Kd [4]: 2080 nM
Kd [2]: > 50000 nM
Kd [3]: 25000 nM
Kd [6]: > 50000 nM
Substance: GST-Ptpn11_N SH2 domain (domain or fragment)

Kd [7]: > 17000 nM
Kd [2]: 1390 nM
Kd [3]: > 17000 nM
Substance: GST-Rasa1_C SH2 domain (domain or fragment)

Kd [2]: 410 nM
Substance: GST-Rasa1_N SH2 domain (domain or fragment)

Substance: Grb2 SH2 (from UniProt P62993)
Kd (IRS-1 (Homo sapiens)): 35 nM
Kd [8]: 35 nM
Kd [9]: 23 nM and 53 nM

Substance: Nck1 SH2 (from UniProt P16333)
Kd [10]: 60 nM

Substance: Plcγ-C SH2 (C-terminal) (from UniProt P19174)
Kd [11]: 4100 nM

Substance: Ptpn11 tandem SH2 tandem SH2 (from UniProt Q06124)
Kd [12]: 3 nM

Substance: Ptpn11_N SH2 (N-terminal) (from UniProt Q06124)
Kd [13]: 110000 nM

Substance: Shc1 SH2 (from UniProt P29353)
Kd [14]: 50000 nM

Substance: Src SH2 (from UniProt P12931)
Kd [15]: 35 nM
